Paper PMC3554631, “Structural Basis of a Histone H3 Lysine 4 Demethylase Required for Stem Elongation in Rice” (PLoS Genetics, 2013)
Where no end group is shown, it is not given here. Me3 = trimethyl

Assays:
[1] = target: T1, FA-J3NCZ, FLAG:HA-tagged JmjN-JmjC-zinc finger region of JMJ703 (amino acids 113 to 700) (rice, UniProt Q53WJ1 113-700); assay: SPR; J3NCZ (FA-J3NCZ) with different concentrations of peptide; set-up for this protein not told in the methods; details: both partners purified
T1 construct: JMJ703, rice; JmjN-JmjC-zinc finger region between amino acids 113 and 700; the only production of J3NCZ that the methods tell is the FLAG:HA-tagged one from tobacco cells (vector pFA121); source: tobacco leaf cells (Agrobacterium infection), purified with Anti-FLAG M2 magnetic beads
T1 sequence (looked up): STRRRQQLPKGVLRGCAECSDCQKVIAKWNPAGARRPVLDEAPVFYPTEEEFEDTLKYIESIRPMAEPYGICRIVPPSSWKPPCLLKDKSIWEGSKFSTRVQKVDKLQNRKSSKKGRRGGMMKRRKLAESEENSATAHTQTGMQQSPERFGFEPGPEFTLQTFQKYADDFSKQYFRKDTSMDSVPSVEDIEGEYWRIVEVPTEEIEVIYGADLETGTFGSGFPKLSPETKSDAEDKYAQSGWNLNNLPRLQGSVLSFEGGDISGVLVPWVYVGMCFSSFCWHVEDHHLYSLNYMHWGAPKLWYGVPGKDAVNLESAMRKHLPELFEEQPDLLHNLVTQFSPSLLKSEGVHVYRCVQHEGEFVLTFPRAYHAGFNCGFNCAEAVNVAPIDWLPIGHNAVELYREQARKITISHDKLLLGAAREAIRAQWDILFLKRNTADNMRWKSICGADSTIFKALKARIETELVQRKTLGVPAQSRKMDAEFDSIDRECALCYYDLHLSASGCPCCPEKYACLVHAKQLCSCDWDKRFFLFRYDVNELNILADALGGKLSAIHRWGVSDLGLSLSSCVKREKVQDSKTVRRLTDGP

[2] = target: T2, c-JMJ703, catalytic core domain of JMJ703 (amino acids 139 to 498) (rice, UniProt Q53WJ1 139-498); assay: SPR; BIAcore 3000, 25°C; c-JMJ703 amine-coupled to a CM5 chip; peptides injected at various concentrations at 10 µL/min for 2 min in 10 mM HEPES pH 7.5, 150 mM NaCl, 0.005% Tween20; reference flow cell subtracted; details: both partners purified
T2 construct: JMJ703, rice JmjC domain-containing histone H3K4 demethylase; amino acids 139 to 498, covering the JmjN domain (A139-K199), long beta-hairpin (D200-T271), mixed domain (L272-V377) and JmjC domain (L378-A498); Cloned into pET-28a with BamHI and XhoI; also called J3NC; catalytic core of JMJ703; source: E. coli Rosetta (DE3), purified (Ni-NTA, thrombin cleavage, Hitrap Q anion exchange)

B1: H3K4me3 peptide (ARTKme3QTARKS) (peptide)
peptide: ARTK(Me3)QTARKS
Kd [1]: 15.9 µM
Kd [2]: 30.1 µM
